This is an account of results in the Human Domainome abundance scans (Beltran et al. 2025).

First the molecules themselves.
B1: SAM and SH3 domain-containing protein 1, residues 630 to 700; numbered along this chain, O94885 (parent)
chain: GRPPQPKSVEDLLDRINLKEHMPTFLFNGYEDLDTFKLLEEEDLDELNIRDPEHRAVLLTAVELLQEYDSN

± gives the uncertainty stated by the source.

This data set covers variants of B1. Put plainly: abundance fitness (aPCA) (normalised: wild type 0, dead -1); higher = more abundant; growth selection in yeast, the domain comes from the species named. The note with it: Homo sapiens.
As to D32W, the abundance fitness is -0.75 ± 0.069.
In the case of D32N, the abundance fitness was -0.085 ± 0.049.
Under D32T stands 0.172 ± 0.036; under E40P, -0.914 ± 0.075; under E40Y, -0.829 ± 0.069.
On to E40K, for which the abundance fitness amounted to 0.347 ± 0.046.
In the case of E40Q it was 0.222 ± 0.049; in that of E40G, 0.171 ± 0.044; in that of E20T, -0.48 ± 0.065.
Turning to E20N, the abundance fitness was -0.455 ± 0.084.
As for E20D, the abundance fitness was -0.498 ± 0.11.
E20R: the abundance fitness is -0.596 ± 0.064.
L12H: the abundance fitness was -0.924 ± 0.096.
In the case of L12E, the abundance fitness is -0.768 ± 0.084.
Consider L12K, for which the abundance fitness was -0.99 ± 0.12.
Turning to R55V, the abundance fitness was -0.591 ± 0.057.
In the case of R55M it was -0.896 ± 0.1.
With R55W, the abundance fitness was -1.14 ± 0.14.
As for R55S, the abundance fitness was -0.731 ± 0.06.
Under R55L stands -1.01 ± 0.071.
Regarding R55G, the abundance fitness was -1.02 ± 0.086.
For the variant R55T, the abundance fitness was -0.89 ± 0.083.
Consider N48W, for which the abundance fitness was -0.775 ± 0.15.
As to N48L, the abundance fitness was -0.741 ± 0.1.
As for N48H, the abundance fitness is -0.056 ± 0.12.
N48S: the abundance fitness was -0.388 ± 0.08.
Turning to N48C, the abundance fitness was -0.273 ± 0.12.
With N48E, the abundance fitness was found to be 0.084 ± 0.099.
On to N48G, for which the abundance fitness is 0.197 ± 0.057.
Consider N48A, for which the abundance fitness is -0.343 ± 0.088.
On to L39A, for which the abundance fitness was -0.881 ± 0.068.
Take L39F: the abundance fitness is -0.973 ± 0.079.
Under L39G stands -0.812 ± 0.067.
In the case of S70T, the abundance fitness was found to be 0.422 ± 0.28.
As to L58H, the abundance fitness was -0.53 ± 0.07.
In the case of L58D it was -0.347 ± 0.08; in that of L58Y, -0.905 ± 0.11; in that of L58W, -0.819 ± 0.11.
On to P4S, for which the abundance fitness was -0.03 ± 0.045.
In the case of P4A it was 0.046 ± 0.051.
As for P4T, the abundance fitness was found to be 0.101 ± 0.046.
In the case of P4I it was 0.058 ± 0.057.
Consider L26Y, for which the abundance fitness is -0.181 ± 0.055.
In the case of L26M it was -0.043 ± 0.045.
In the case of L26Q, the abundance fitness was -0.11 ± 0.049.
Consider F27K, for which the abundance fitness came out at 0.507 ± 0.04.
In the case of F27M it was 0.327 ± 0.041; in that of F27C, 0.272 ± 0.04; in that of K19M, -0.058 ± 0.043.
In the case of K19W it was -0.607 ± 0.072.
Turning to K19F, the abundance fitness was -0.654 ± 0.061.
K19H: the abundance fitness is -0.262 ± 0.05.
Under K19R stands -0.032 ± 0.035.
In the case of K19Y it was -0.532 ± 0.06.
In the case of Y68K it was 0.054 ± 0.056; in that of Y68G, 0.168 ± 0.041; in that of Y68E, 0.21 ± 0.053.
Take Y68R: the abundance fitness amounted to 0.094 ± 0.038.
In the case of Y68I it was -0.191 ± 0.055.
Under D43T stands -0.19 ± 0.039; under D43C, -0.713 ± 0.079.
Under D43S stands -0.359 ± 0.039; under D43K, -0.117 ± 0.044; under D43P, -0.939 ± 0.065.
As for D43R, the abundance fitness is -0.385 ± 0.043.
Regarding D43W, the abundance fitness was -0.928 ± 0.097.
As for D43E, the abundance fitness was -0.503 ± 0.067.
Regarding D43A, the abundance fitness was -0.325 ± 0.045.
With K37M, the abundance fitness is -0.16 ± 0.057.
K37S: the abundance fitness was -0.337 ± 0.045.
Regarding K37D, the abundance fitness was -0.791 ± 0.1.
As to K37E, the abundance fitness was -0.64 ± 0.097.
For K37L, the abundance fitness was -0.555 ± 0.053.
Under D14T stands -0.086 ± 0.045; under D14F, -0.734 ± 0.068.
Under D14P stands -0.834 ± 0.086; under D69G, -0.132 ± 0.056; under D69T, -0.358 ± 0.045.
D69H: the abundance fitness was -0.327 ± 0.056.
Take V62C: the abundance fitness was -0.241 ± 0.051.
In the case of V62D, the abundance fitness is -0.607 ± 0.11.
With V62P, the abundance fitness is -0.517 ± 0.062.
In the case of V62L it was -0.647 ± 0.051; in that of V62A, -0.091 ± 0.049; in that of D45G, -0.812 ± 0.077.
With D45W, the abundance fitness was -0.499 ± 0.064.
With D45N, the abundance fitness is -0.272 ± 0.045.
Under D45S stands -0.544 ± 0.04.
As for D45M, the abundance fitness was -0.247 ± 0.051.
Take T24L: the abundance fitness was -0.367 ± 0.04.
With T24S, the abundance fitness is -0.464 ± 0.044.
In the case of T24Y it was -0.98 ± 0.097; in that of Q66G, -0.197 ± 0.052.
Regarding Q66K, the abundance fitness worked out at 0.267 ± 0.041.
In the case of Q66C it was -0.448 ± 0.064.
Under Q66P stands -0.673 ± 0.056.
As to Q66D, the abundance fitness was -0.49 ± 0.064.
In the case of L38H it was 0.029 ± 0.05; in that of L38G, -0.061 ± 0.038.
For L38N, the abundance fitness came out at 0.054 ± 0.053.
In the case of L38K it was 0.117 ± 0.053; in that of L38F, -0.234 ± 0.059.
In the case of L38Q it was 0.175 ± 0.044; in that of L38P, -0.857 ± 0.081.
In the case of I49F, the abundance fitness was -0.851 ± 0.069.
On to I49G, for which the abundance fitness is -0.785 ± 0.062.
Under I49E stands -0.79 ± 0.082; under I49S, -0.876 ± 0.052; under I49Y, -0.869 ± 0.07.
Under I49A stands -0.98 ± 0.072; under I49T, -0.863 ± 0.065; under I49L, -0.868 ± 0.052.
In the case of F25T it was -0.59 ± 0.061; in that of F25L, -0.266 ± 0.041; in that of F25D, -0.672 ± 0.093.
For F25E, the abundance fitness is -0.623 ± 0.094.
Under F25C stands -0.701 ± 0.08.
Under F25A stands -0.837 ± 0.072; under T60Y, -0.449 ± 0.053; under T60E, 0.398 ± 0.052.
In the case of T60H it was 0.302 ± 0.041; in that of T60L, -0.579 ± 0.046.
For T60A, the abundance fitness is 0.242 ± 0.042.
Consider T60C, for which the abundance fitness is -0.293 ± 0.049.
On to T60N, for which the abundance fitness was found to be 0.348 ± 0.038.
In the case of T60R it was 0.237 ± 0.032; in that of G1M, 0.013 ± 0.098; in that of G1E, 0.166 ± 0.074.
Regarding G1Y, the abundance fitness stood at 0.098 ± 0.075.
Consider G1A, for which the abundance fitness was -0.064 ± 0.055.
Consider G1D, for which the abundance fitness was 0.195 ± 0.057.
In the case of D11R it was -0.926 ± 0.07; in that of D11C, -0.795 ± 0.079.
With D11L, the abundance fitness is -0.9 ± 0.057.
Turning to D11V, the abundance fitness is -0.852 ± 0.068.
Under D11T stands -0.818 ± 0.064.
D11P: the abundance fitness is -0.92 ± 0.071.
On to I16T, for which the abundance fitness was -0.589 ± 0.076.
Regarding I16C, the abundance fitness was -0.067 ± 0.063.
As to I16Q, the abundance fitness is -0.682 ± 0.078.
In the case of I16D it was -0.703 ± 0.15; in that of E67A, -0.082 ± 0.048.
In the case of E67C it was -0.3 ± 0.057.
In the case of E67T it was -0.048 ± 0.04; in that of E67H, -0.165 ± 0.047.
In the case of P23Y, the abundance fitness was -0.271 ± 0.052.
P23Q: the abundance fitness is -0.017 ± 0.056.
Under P23T stands -0.019 ± 0.04; under P23A, 0.113 ± 0.043; under P23H, -0.243 ± 0.052.
As for N28T, the abundance fitness was -0.831 ± 0.069.
In the case of N28A it was -0.006 ± 0.04; in that of N28M, -0.687 ± 0.081; in that of N28P, -0.856 ± 0.075.
Consider N28W, for which the abundance fitness was -0.553 ± 0.071.
With N28H, the abundance fitness is 0.109 ± 0.041.
In the case of N28L, the abundance fitness is -0.855 ± 0.058.
On to P3D, for which the abundance fitness was 0.2 ± 0.053.
In the case of P3H it was -0.094 ± 0.047; in that of P3A, -0.115 ± 0.043.
In the case of L64C, the abundance fitness is 0.019 ± 0.044.
With L64V, the abundance fitness was -0.234 ± 0.039.
Under L64E stands 0.483 ± 0.045.
In the case of L64K it was 0.264 ± 0.044; in that of L64D, 0.33 ± 0.041; in that of S8K, -0.759 ± 0.11.
Take S8T: the abundance fitness is -0.244 ± 0.052.
